Assays:
[1] = biological target: T1, variant nuclease L38G combination (P14R, D32R, I61R, E311R, L38G); test: cell_activity; PAM 5'-TTTA-3'; conditions: tags: pcDNA3.1 expression
T1 chain: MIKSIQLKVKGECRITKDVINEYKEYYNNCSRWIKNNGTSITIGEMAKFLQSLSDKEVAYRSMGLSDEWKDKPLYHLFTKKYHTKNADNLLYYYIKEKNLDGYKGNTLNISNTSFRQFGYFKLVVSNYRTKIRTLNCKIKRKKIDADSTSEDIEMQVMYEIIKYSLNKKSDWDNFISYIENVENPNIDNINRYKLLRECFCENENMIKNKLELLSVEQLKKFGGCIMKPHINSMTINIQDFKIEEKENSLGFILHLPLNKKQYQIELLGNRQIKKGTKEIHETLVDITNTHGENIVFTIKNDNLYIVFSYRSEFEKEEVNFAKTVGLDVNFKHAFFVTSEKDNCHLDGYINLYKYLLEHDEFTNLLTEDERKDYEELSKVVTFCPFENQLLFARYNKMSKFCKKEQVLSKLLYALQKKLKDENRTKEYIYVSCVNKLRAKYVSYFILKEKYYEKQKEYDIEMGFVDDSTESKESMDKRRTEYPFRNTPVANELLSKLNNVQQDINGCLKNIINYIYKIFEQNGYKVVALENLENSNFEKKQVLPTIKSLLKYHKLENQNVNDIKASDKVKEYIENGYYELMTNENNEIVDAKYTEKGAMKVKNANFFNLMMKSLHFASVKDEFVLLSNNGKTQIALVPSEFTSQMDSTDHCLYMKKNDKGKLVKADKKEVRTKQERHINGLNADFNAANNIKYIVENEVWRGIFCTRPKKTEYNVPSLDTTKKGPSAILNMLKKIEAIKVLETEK
Method in brief: (§1)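 HEK293T cells were lipofected with nuclease plasmid (pcDNA3.1 backbone) plus RNA guide plasmid, with guide omitted in negative controls. After ~72 h cells were lysed in QuickExtract and % indels were derived from NGS reads, averaged over two bioreplicates and two technical replicates.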

[2] = biological target: T2, variant nuclease E154G combination (P14R, D32R, I61R, E311R, E154G); test: cell_activity; PAM 5'-TTTA-3'; conditions: tags: pcDNA3.1 expression
T2 chain: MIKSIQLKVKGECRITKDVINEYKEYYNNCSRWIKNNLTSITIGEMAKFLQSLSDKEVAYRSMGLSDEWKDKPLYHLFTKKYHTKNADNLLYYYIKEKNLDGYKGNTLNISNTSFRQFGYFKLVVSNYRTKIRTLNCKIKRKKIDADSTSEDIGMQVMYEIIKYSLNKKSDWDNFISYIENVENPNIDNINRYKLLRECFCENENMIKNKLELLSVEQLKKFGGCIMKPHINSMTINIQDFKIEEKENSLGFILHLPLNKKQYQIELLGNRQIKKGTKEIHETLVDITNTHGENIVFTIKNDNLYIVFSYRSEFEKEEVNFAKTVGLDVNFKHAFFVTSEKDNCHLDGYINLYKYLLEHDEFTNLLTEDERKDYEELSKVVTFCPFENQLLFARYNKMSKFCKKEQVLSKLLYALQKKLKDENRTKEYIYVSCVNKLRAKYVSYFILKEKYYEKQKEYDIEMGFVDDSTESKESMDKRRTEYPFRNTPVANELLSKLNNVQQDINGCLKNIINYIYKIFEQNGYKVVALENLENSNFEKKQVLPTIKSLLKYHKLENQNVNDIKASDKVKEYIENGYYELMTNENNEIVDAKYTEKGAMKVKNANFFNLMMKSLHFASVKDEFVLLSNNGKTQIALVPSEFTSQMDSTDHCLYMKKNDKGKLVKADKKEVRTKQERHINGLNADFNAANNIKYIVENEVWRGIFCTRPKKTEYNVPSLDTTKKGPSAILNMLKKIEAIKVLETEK
Method in brief: as §1

B1: VEGFA crRNA ; VEGFA target (ssRNA ; dsDNA)
RNA: CUUGUUGUAUAUGUCCUUUUAUAGGUAUUAAACAACUCCAGACCACCAAUGGGCAC
DNA 1: TCCAGACCACCAATGGGCAC
DNA 2: GTGCCCATTGGTGGTCTGGA
Question: How did the indel activity [1] turn out when B1 was run?
Answer: The indel activity was 0.22 fold of WT.

Question: And the indel activity [2]?
Answer: Its indel activity is 2.65 fold of WT.

Source: patent US20240035010, “COMPOSITIONS COMPRISING A VARIANT POLYPEPTIDE AND USES THEREOF” (Arbor Biotechnologies, Inc., published 2024)
